Measurements published in patent US20110217237A1 (AbbVie / Abbott, published 2011).
Residue numbers refer to the chain shown, from its start.

B1: h38H12.11 (antibody, V domains shown)
VH: EVQLVESGGGVVQPGRSLRLSCAASGFTFSNYGMYWVRQAPGKGLEWVAFISHGGGITYYRDSVKGRFTISRDNSKNTLYLQMNSLRAEDTAVYYCAALNWELGIDYWGQGTMVTVSS
VL: DIQMTQSPSSLSASVGDRVTITCRASEDIYSNLAWYQQKPGKAPKLLIYAANRLQDGVPSRFSGSGSGTDYTLTISSLQPEDFATYYCLQGSKFPLTFGQGTKLEIKR
notes: humanized IgG; also called VH.1b/VL.1b 38H12
B2: h38H12.12 (antibody, V domains shown)
VH: B1 VH
VL: EIVMTQSPATLSVSPGERATLSCRASEDIYSNLAWYQKKPGQSPRLLIYAANRLQDGVPARFSGSGSGTEYTLTISSLQSEDFAVYFCLQGSKFPLTFGQGTKLEIKR
notes: humanized IgG; also called VH.1b/VL.2a 38H12
B3: h38H12.7 (antibody, V domains shown)
VH: B1 VH with V37I, N77S, Y95H
VL: B1 VL
notes: humanized IgG; also called VH.1a/VL.1b 38H12
B4: h38H12.5 (antibody, V domains shown)
VH: B1 VH with V37I, N77S, Y95H
VL: B1 VL with Y71F
notes: humanized IgG; also called VH.1a/VL.1 38H12
B5: h38H12.13 (antibody, V domains shown)
VH: B1 VH with V11L, R16G, V37I, N77S, Y95H
VL: B1 VL with Y71F
notes: humanized IgG; also called VH.2a/VL.1 38H12
B6: h38H12.14 (antibody, V domains shown)
VH: B1 VH with V11L, R16G, V37I, N77S, Y95H
VL: B1 VL with Q38K, A43S, Y87F
notes: humanized IgG; also called VH.2a/VL.1a 38H12
B7: h38H12.16 (antibody, V domains shown)
VH: B1 VH with V11L, R16G, V37I, N77S, Y95H
VL: B2 VL
notes: humanized IgG; also called VH.2a/VL.2a 38H12
B8: h38H12.8 (antibody, V domains shown)
VH: B1 VH with V37I, N77S, Y95H
VL: B2 VL
notes: humanized IgG; also called VH.1a/VL.2a 38H12
B9: h38H12.6 (antibody, V domains shown)
VH: B1 VH with V37I, N77S, Y95H
VL: B1 VL with Q38K, A43S, Y87F
notes: humanized IgG; also called VH.1a/VL.1a 38H12
B10: h38H12.15 (antibody, V domains shown)
VH: B1 VH with V11L, R16G, V37I, N77S, Y95H
VL: B1 VL
notes: humanized IgG; also called VH.2a/VL.1b 38H12
B11: h38H12.10 (antibody, V domains shown)
VH: B1 VH
VL: B1 VL with Q38K, A43S, Y87F
notes: humanized IgG; also called VH.1b/VL.1a 38H12
B12: h38H12.9 (antibody, V domains shown)
VH: B1 VH
VL: B1 VL with Y71F
notes: humanized IgG; also called VH.1b/VL.1 38H12

target: T1, human DLL4 extracellular domain (human, UniProt Q9NR61 27-529); test: SPR (Biacore)
T1 construct: purified recombinant ECD; biotin-labelled or 6xHis-tagged depending on the assay; also called huDLL4 ECD; hu DLL4 ECD
Experimental: Binding of DLL4 antibodies to a purified recombinant DLL4 extracellular domain (ECD) was determined by surface plasmon resonance-based measurements with a Biacore® instrument (either a Biacore 2000, Biacore 3000, or Biacore T100; GE Healthcare, Piscataway, N.J., US) using running buffer HBS-EPB (10 mM HEPES [pH 7.4], 150 mM NaCl, 3 mM EDTA, 0.1 mg/ml BSA and 0.005% surfactant P20) at 25° C. For example, approximately 9000 RU of goat anti-human Fc specific polyclonal antibody (Thermo Fisher Scientific Inc., Rockford, Ill., US) diluted in 10 mM sodium acetate (pH 4.5) is directly immobilized across a CMS research grade biosensor chip using a standard amine coupling kit according to manufacturer's instructions and procedures at 25 μg/ml. Unreacted moieties on the biosensor surface were blocked with ethanolamine. For kinetic analysis, rate equations derived from the 1:1 Langmuir binding model were fitted simultaneously to multiple antigen injections (using global fit analysis) with the use of Scrubber 2 (BioLogic Software), Biacore Biaevaluation 4.0.1 software or Biacore T100 Evaluation software. Purified antibodies were diluted in running buffer for capture across goat anti-human Fc reaction surfaces. Antibodies to be captured as a ligand (1 μg/ml) were injected over reaction matrices at a flow rate of 10 μl/min. During the assay, all measurements were referenced against the capture surface alone (i.e., with no captured anti-DLL4 antibody). […] The equilibrium dissociation constant KD (M) of the reaction between antibodies and the target antigen was then calculated from the kinetic rate constants by the following formula: KD=Koff/Kₒₙ. Binding was recorded as a function of time and kinetic rate constants were calculated. In this assay, on-rates as fast as 10⁶ M⁻¹s⁻¹ and off-rates as slow as 10⁻⁶ s⁻¹ could be measured.
The good binder variants, as determined by binding ELISA, were assessed by Biacore (Example 1.1) concurrently with cell based assay screens.

T1 sequence (Q9NR61 27-529 limits assumed): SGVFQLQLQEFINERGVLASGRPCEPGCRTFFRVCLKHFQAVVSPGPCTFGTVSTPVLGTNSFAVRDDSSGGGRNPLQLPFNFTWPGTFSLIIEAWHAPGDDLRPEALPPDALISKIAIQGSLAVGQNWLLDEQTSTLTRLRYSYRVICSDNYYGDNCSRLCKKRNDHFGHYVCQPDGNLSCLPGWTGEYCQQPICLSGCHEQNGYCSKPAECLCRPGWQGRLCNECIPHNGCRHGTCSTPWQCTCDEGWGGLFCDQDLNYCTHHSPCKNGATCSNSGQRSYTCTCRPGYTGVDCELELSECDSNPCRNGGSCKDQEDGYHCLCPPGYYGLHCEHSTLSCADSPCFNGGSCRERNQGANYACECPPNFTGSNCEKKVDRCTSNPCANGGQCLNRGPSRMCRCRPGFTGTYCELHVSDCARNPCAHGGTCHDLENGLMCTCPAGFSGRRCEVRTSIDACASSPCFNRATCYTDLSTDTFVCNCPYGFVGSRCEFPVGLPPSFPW

| Kd [nM] | Binder |
| --- | --- |
| 0.554 | B1 |
| 0.819 | B2 |
| 0.34 | B3 |
| 0.401 | B4 |
| 0.507 | B5 |
| 0.303 | B6 |
| 0.392 | B7 |
| 0.397 | B8 |
| 0.434 | B9 |
| 0.355 | B10 |
| 0.578 | B11 |
| 0.986 | B12 |

target: T2, human DLL4, full length, on cells (human, UniProt Q9NR61 27-685); test: FACS, DLL4 cells
T2 construct: also called huDLL4 cells; human DLL4-293G
Experimental: Stable cell lines overexpressing cell-surface DLL4 were harvested from tissue culture flasks, washed four times and resuspended in phosphate buffered saline (PBS) containing 1% bovine serum albumin and 1 mM CaCl₂ (FACS buffer). 1.5×10⁵ cells were incubated with antibodies at various concentrations in FACS buffer for 60 minutes on ice. […] Following an incubation on ice (4° C., 60 minutes), cells were washed three times and resuspended in FACS buffer. Fluorescence was measured using a Becton Dickinson FACSCalibur-HTS (Becton Dickinson, San Jose, Calif., US). Data were analyzed using Graphpad Prism software and EC₅₀ values were reported as the concentration of antibody to achieve 50% of maximal DLL4 antibodies binding to DLL4 expressing cells.
The good binder variants, as determined by binding ELISA, were assessed by Biacore (Example 1.1) concurrently with cell based assay screens. The KD for human DLL4 was similar for all variants (see, Biacore, KD in Table 18, below).

T2 sequence (Q9NR61 27-685 limits assumed): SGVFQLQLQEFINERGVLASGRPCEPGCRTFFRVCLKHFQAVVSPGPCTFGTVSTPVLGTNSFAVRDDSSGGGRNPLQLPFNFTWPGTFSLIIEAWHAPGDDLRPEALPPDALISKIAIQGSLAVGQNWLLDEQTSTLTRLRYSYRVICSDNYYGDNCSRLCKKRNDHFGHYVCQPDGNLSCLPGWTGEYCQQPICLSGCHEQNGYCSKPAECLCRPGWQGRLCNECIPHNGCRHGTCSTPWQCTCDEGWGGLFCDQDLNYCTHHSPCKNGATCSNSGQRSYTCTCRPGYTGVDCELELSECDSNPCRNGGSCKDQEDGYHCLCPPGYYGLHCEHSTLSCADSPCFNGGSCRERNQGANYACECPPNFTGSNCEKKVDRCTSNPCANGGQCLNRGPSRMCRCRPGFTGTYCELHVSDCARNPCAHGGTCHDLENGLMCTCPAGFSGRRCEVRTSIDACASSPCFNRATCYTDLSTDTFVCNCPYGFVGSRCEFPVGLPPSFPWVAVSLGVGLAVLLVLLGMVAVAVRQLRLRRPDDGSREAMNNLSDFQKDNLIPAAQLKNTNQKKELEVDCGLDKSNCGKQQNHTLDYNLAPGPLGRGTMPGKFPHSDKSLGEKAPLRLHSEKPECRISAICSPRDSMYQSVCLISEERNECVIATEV

| EC50 [nM] | Binder |
| --- | --- |
| 2.48 | B1 |
| 1.48 | B2 |
| 19.1 | B3 |
| 77.2 | B4 |
| 2.56 | B5 |
| 1.04 | B6 |
| 2.91 | B7 |
| 20 | B8 |
| 12.3 | B9 |
| 2.37 | B10 |
| 2.49 | B11 |
| 3.71 | B12 |

target: T2, human DLL4, full length, on cells; test: cell-based or functional assay

| Notch Reporter Assay EC50 [nM] | Binder |
| --- | --- |
| 0.657 | B1 |
| 1.06 | B2 |
| 2.6 | B3 |
| 7.31 | B4 |
| 0.794 | B5 |
| 1.01 | B6 |
| 1.19 | B7 |
| 5.56 | B8 |
| 6.32 | B9 |
| 0.837 | B10 |
| 0.786 | B11 |
| 1.44 | B12 |

target: T1, human DLL4 extracellular domain; test: competition ELISA vs Notch-1 Fc
Experimental: Plates were then washed 3 times with wash buffer (PBS, 0.05% Tween-20) and blocked with 200 μl/well blocking buffer (D-PBS, 1% BSA, 1 mM CaCl₂, 0.05% Tween-20) for 1 hour at 25° C. While blocking, biotin labeled DLL4 extracellular domain (14 nM) was mixed with antibody (30 pM-66 nM, 3-fold serial dilution in blocking buffer) for 1 hour at 25° C. with shaking. Assay plates were washed after blocking, and incubated with DLL4/antibody mixtures (100 μl/well, 1 hour at 25° C. with shaking). Plates were washed again and 100 μl/well streptavidin conjugated with HRP (Fitzgerald #65R-S104PHRPx, diluted 1:5,000 in blocking buffer) was added for 1 hour at 25° C. with shaking. After a final wash, plates were developed using 100 μl/well substrate (TMB Sigma #T8665), and the reaction was stopped using 100 μl/well 1N HCl, and the absorbance was read at 450 nm. Data were analyzed using Graphpad Prism software and IC₅₀ values were reported as the concentration of antibody to achieve 50% reduction of DLL4 bound to Notch1.
Purified variants were further characterized in human Notch-1 competition ELISAs (Example 1.4), which used a format of plating Notch-1 Fc onto ELISA plates and pre-incubating biotinylated human DLL4 plus titrated antibody. Signal was assessed by free biotinylated DLL4 binding to Notch-1 Fc.

| EC50 [nM] | Binder |
| --- | --- |
| 3.8 | B1 |
| 3.23 | B2 |
| 12.5 | B3 |
| 14.8 | B4 |
| 5.29 | B5 |
| 5.84 | B6 |
| 3.77 | B7 |
| 8.31 | B8 |
| 27 | B9 |
| 5.71 | B10 |
| 3.9 | B11 |
| 4.16 | B12 |

target: T1, human DLL4 extracellular domain; test: capture ELISA, biotin-huDLL4 ECD

| EC50 [nM] | Binder |
| --- | --- |
| 0.126 | B1 |
| 0.165 | B2 |
| 0.18 | B3 |
| 0.202 | B4 |
| 0.153 | B5 |
| 0.146 | B6 |
| 0.17 | B7 |
| 0.197 | B8 |
| 0.158 | B9 |
| 0.0904 | B10 |
| 0.123 | B11 |
| 0.116 | B12 |
